How the values were obtained:
[1] = biological target: T1, hCdc5 DNA-binding domain (aa 1-500) (Homo sapiens, UniProt Q99459 SEQ:1-500); experiment: EMSA; data not shown; protein construct not specified; settings: tags: His6 fusion (pET29c(+), E. coli BL21(DE3), Ni-NTA); chain copies: forms homodimers by glutaraldehyde cross-linking in vitro
[2] = biological target: T1, hCdc5 DNA-binding domain (aa 1-500); experiment: EMSA; amino terminus of hCdc5; clones 6 and 30 overlap; clone 6 printed as … in table but SEQ 15 given; settings: tags: His6 fusion (pET29c(+), E. coli BL21(DE3), Ni-NTA); chain copies: forms homodimers by glutaraldehyde cross-linking in vitro
Excerpt: (§1) To determine whether hCdc5 interacts with specific genomic sequences through direct DNA binding, we first surveyed the 12 genomic sequences (totaling ˜36,200 bp) identified by binding selection in yeast for the synthetic consensus binding sequence identified by cyclic amplification and selection in the example above. An exact match was not found, although this was not surprising as the likelihood of finding a unique 12 bp sequence is 6×10⁻⁸, and is predicted to occur by chance ˜180 times in the human genome. We then used the information obtained by scanning mutagenesis to look for sites containing the core “ANCA” motif flanked by palindromes within the genomic clones. […] Complementary oligonucleotides representing the sequences in Table 2 flanked by the non-random oligo flanking sequences used in the oligonucleotide selection experiments described above were used for the gel shift assays. Two of these active binding sites were found in the two clones which represented overlapping sequences from the same region of the genome (clones 6 and 30). All 3 sites shared features of the consensus binding sequence: a core “ANCA” motif, AT-rich flanking palindromes, and a distance between core and palindromes of no more than 3 bp.

[3] = biological target: T1, hCdc5 DNA-binding domain (aa 1-500); experiment: EMSA; amino terminus of hCdc5; settings: tags: His6 fusion (pET29c(+), E. coli BL21(DE3), Ni-NTA); chain copies: forms homodimers by glutaraldehyde cross-linking in vitro
Excerpt: as §1

[4] = biological target: T1, hCdc5 DNA-binding domain (aa 1-500); experiment: EMSA; text: abolished; settings: tags: His6 fusion (pET29c(+), E. coli BL21(DE3), Ni-NTA); chain copies: forms homodimers by glutaraldehyde cross-linking in vitro; label: 32P
Method: Labeled oligonucleotides bearing substitutions in each of the bases comprising the consensus sequence were incubated with recombinant His₆-hCdc5 and gel shift assays were carried out as described above to determine the binding affinities for the mutated sequences. […] Substitutions at any other position abolished DNA-protein binding implicating these residues as critical for the interaction.

[5] = biological target: hCdc5 W31G W53G W82G mutant (Homo sapiens, UniProt Q99459 SEQ:1-500, W31G,W53G,W82G); experiment: EMSA; data not shown; settings: label: 32P
Sequence of hCdc5 W31G W53G W82G mutant (Q99459 1-500 W31G/W53G/W82G): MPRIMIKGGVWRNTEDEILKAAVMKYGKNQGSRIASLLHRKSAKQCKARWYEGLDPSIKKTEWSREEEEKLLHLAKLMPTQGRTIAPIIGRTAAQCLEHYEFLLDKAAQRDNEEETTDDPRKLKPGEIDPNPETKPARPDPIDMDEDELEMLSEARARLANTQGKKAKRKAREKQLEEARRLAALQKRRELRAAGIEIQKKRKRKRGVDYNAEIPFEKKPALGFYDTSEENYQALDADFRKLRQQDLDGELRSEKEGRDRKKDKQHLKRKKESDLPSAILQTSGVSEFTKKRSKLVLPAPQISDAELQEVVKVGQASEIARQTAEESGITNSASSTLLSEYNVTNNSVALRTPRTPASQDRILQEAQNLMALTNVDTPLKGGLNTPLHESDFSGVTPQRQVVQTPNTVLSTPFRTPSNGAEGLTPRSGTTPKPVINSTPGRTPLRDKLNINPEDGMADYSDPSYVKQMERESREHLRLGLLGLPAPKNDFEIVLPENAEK

[6] = biological target: T1, hCdc5 DNA-binding domain (aa 1-500); experiment: EMSA; 1 nM DNA, 2.5-40 nM protein; 10 mM HEPES pH 7.8, 75 mM KCl, 2.5 mM MgCl2, poly(dI-dC), room temperature; settings: tags: His6 fusion (pET29c(+), E. coli BL21(DE3), Ni-NTA); chain copies: forms homodimers by glutaraldehyde cross-linking in vitro; label: 32P
[7] = biological target: T1, hCdc5 DNA-binding domain (aa 1-500); experiment: EMSA; single-stranded antisense; settings: tags: His6 fusion (pET29c(+), E. coli BL21(DE3), Ni-NTA); chain copies: forms homodimers by glutaraldehyde cross-linking in vitro
[8] = biological target: T1, hCdc5 DNA-binding domain (aa 1-500); experiment: EMSA; single-stranded sense; settings: tags: His6 fusion (pET29c(+), E. coli BL21(DE3), Ni-NTA); chain copies: forms homodimers by glutaraldehyde cross-linking in vitro

T1 sequence (Q99459 1-500): as the sequence (Q99459 1-500 W31G/W53G/W82G) above, with G31W, G53W, G82W counted along it

B1: new-palindrome mutant GATATAACATAT (dsDNA)
DNA 1: GATATAACATAT
DNA 2: ATATGTTATATC
binding result [1]: no binding

B2: genomic clone 6/30 site (dsDNA)
DNA 1: CGCTCGAGGGATCCGAATTCAATAAAATCAAAATTTCTAGAAAGCTTGTCGACGC
DNA 2: GCGTCGACAAGCTTTCTAGAAATTTTGATTTTATTGAATTCGGATCCCTCGAGCG
binding result [2]: binds

B3: genomic clone 8 site (dsDNA)
DNA 1: CGCTCGAGGGATCCGAATTCAATGAACGAATCAAATTTCTAGAAAGCTTGTCGACGC
DNA 2: GCGTCGACAAGCTTTCTAGAAATTTGATTCGTTCATTGAATTCGGATCCCTCGAGCG
binding result [3]: no binding

B4: consensus mutant position 8 (dsDNA)
DNA 1: GATTTAATATAA
DNA 2: TTATATTAAATC
binding signal [4]: 0.2 fraction of control

B5: consensus mutant position 10 (dsDNA)
DNA 1: GATTTAACAGAA
DNA 2: TTCTGTTAAATC
binding signal [4]: 0.2 fraction of control

B6: consensus mutant position 3 (dsDNA)
DNA 1: GAGTTAACATAA
DNA 2: TTATGTTAACTC
binding signal [4]: 0.2 fraction of control

B7: hCdc5 consensus site (dsDNA)
DNA 1: GATTTAACATAA
DNA 2: TTATGTTAAATC
binding result [5]: no binding
Kd [6]: ~10 nM

B8: consensus mutant position 9 (dsDNA)
DNA 1: GATTTAACCTAA
DNA 2: TTAGGTTAAATC
binding signal [4]: 0.2 fraction of control

TTATGTTAAATC (ssDNA, [NONE]) [consensus site single-stranded antisense]
binding result [7]: no binding

B9: genomic clone 12 site 1 (dsDNA)
DNA 1: CGCTCGAGGGATCCGAATTCAAAGGGGAACACTTTTCTAGAAAGCTTGTCGACGC
DNA 2: GCGTCGACAAGCTTTCTAGAAAAGTGTTCCCCTTTGAATTCGGATCCCTCGAGCG
binding result [3]: binds

B10: consensus mutant position 6 (dsDNA)
DNA 1: GATTTCACATAA
DNA 2: TTATGTGAAATC
binding signal [4]: 0.1 fraction of control

B11: new-palindrome mutant GATGTAACATAC (dsDNA)
DNA 1: GATGTAACATAC
DNA 2: GTATGTTACATC
binding result [1]: no binding

GATTTAACATAA (ssDNA) [consensus site single-stranded sense]
binding result [8]: no binding

B12: genomic clone 25 site (dsDNA)
DNA 1: CGCTCGAGGGATCCGAATTCAATTCCCCGGATCATTGCAAACAATTTCTAGAAAGCTTGTCGACGC
DNA 2: GCGTCGACAAGCTTTCTAGAAATTGTTTGCAATGATCCGGGGAATTGAATTCGGATCCCTCGAGCG
binding result [3]: no binding

B13: consensus mutant position 11 (dsDNA)
DNA 1: GATTTAACATCA
DNA 2: TGATGTTAAATC
binding signal [4]: 0.2 fraction of control

B14: genomic clone 12 site 2 (dsDNA)
DNA 1: CGCTCGAGGGATCCGAATTCCCCCCCTTTAAACCAGCGTGGAGGGGGGTCTAGAAAGCTTGTCGACGC
DNA 2: GCGTCGACAAGCTTTCTAGACCCCCCTCCACGCTGGTTTAAAGGGGGGGAATTCGGATCCCTCGAGCG
binding result [3]: no binding

B15: consensus mutant position 4 (dsDNA)
DNA 1: GATGTAACATAA
DNA 2: TTATGTTACATC
binding signal [4]: 0.2 fraction of control
